Experimental data: the supplement of paper PMC9732359
± gives the uncertainty stated by the source.

Test: protein stability index of a GFP-peptide fusion (yeast GPS) (PSI 1-4); higher = more stable; sorted into four equal gates, so the index is relative within each strain
Summary of the method: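 Tiled 17-residue yeast protein peptides were fused downstream of GFP in a plasmid that also expresses Cherry, and the pooled library was carried in yeast. Mid-log cultures in leucine-free medium were sorted into four equal gates by GFP/Cherry fluorescence ratio, and plasmids from each gate were PCR-amplified and Illumina-sequenced, with reads assigned to strains by barcodes. The protein stability index for each peptide was each gate's read frequency times its gate number, summed.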

Sequence | protein stability index (doa10∆) | protein stability index (pdr5∆) | protein stability index (san1∆) | protein stability index (ubr1∆)
LTAIPILLEPIYEVDIT [SNU114] | 2.24 ± 0.047 | 1.75 ± 0.041 | 1.94 ± 0.054 | 2.19 ± 0.038
TTDDKSMDTKKKHKQKK [BRN1] | 3.21 ± 0.092 | 3.32 ± 0.09 | 3.51 ± 0.068 | 3.27 ± 0.054
SGGSVNLYHVTEDGWIY [PRE2] | 2.85 ± 0.12 | 3.16 ± 0.15 | 3 ± 0.087 | 3.04 ± 0.089
NINFASGVKNDILQSLS [CDC53] | 2.11 ± 0.066 | 2.39 ± 0.045 | 1.65 ± 0.053 | 1.66 ± 0.045
FNTNSSFTPSTVPNINF [YOR098C/NUP1] | 2.48 ± 0.04 | 2.42 ± 0.032 | 2.54 ± 0.04 | 2.77 ± 0.029
ILKSLKNRSNRKRFHSQ [YOR098C/NUP1] | 3.08 ± 0.061 | 3.22 ± 0.066 | 3.03 ± 0.081 | 3.11 ± 0.042
VSIVKLDTQLITLLPSS [SNF12] | 1.73 ± 0.051 | 1.9 ± 0.05 | 1.95 ± 0.084 | 1.97 ± 0.051
YLNGTLIGSIRFPTKFV [RET1] | 2.04 ± 0.075 | 1.6 ± 0.053 | 1.64 ± 0.088 | 1.56 ± 0.044
KISEGSAKPTFSFSKSE [YOR098C/NUP1] | 1.75 ± 0.11 | 1.92 ± 0.17 | 2.11 ± 0.2 | 1.77 ± 0.11
SNEEKEKIKMKLKQGQK [GAL11] | 2.96 ± 0.25 | 3.37 ± 0.12 | 3.04 ± 0.07 | –
KSMITSEGEQKSAEGNN [YAR002W/NUP60] | 3.2 ± 0.047 | 3.19 ± 0.045 | 3.25 ± 0.035 | 3.17 ± 0.041
KEHEPCIIFMDEVDAIG [RPT4] | 1.85 ± 0.049 | 1.92 ± 0.059 | 1.79 ± 0.12 | 1.98 ± 0.072
EVFEFKTFNKIQSQVFE [BRR2] | – | 3.29 ± 0.19 | – | 3.08 ± 0.22
FPMPYENEEFITFLQTL [ECM29] | 2.34 ± 0.058 | 2.53 ± 0.034 | 2.4 ± 0.047 | 2.39 ± 0.063
NSSESDEEESNDEKQKA [RPN13] | 3.32 ± 0.17 | 2.43 ± 0.21 | – | 3.41 ± 0.088
TAEDSWAVISAFFREKG [RPB2] | 3.26 ± 0.12 | 3.02 ± 0.073 | 2.61 ± 0.068 | 2.94 ± 0.063
SIVTVVSSAKFSGKYLK [RPL22B] | 2.8 ± 0.1 | 2.86 ± 0.11 | 2.73 ± 0.085 | 2.73 ± 0.093
NNSNSNNNSSNEKEQLS [SEC65] | 2.77 ± 0.041 | 2.72 ± 0.041 | 2.79 ± 0.031 | 2.76 ± 0.035
LYFEIIHGVLKNVDREV [FAS2] | 3.04 ± 0.09 | 2.04 ± 0.099 | 2.63 ± 0.13 | 1.64 ± 0.18
TLLKNLRKKLNFKLCQA [YJR042W/NUP85] | 2.01 ± 0.12 | 2.12 ± 0.097 | 1.13 ± 0.23 | –
TKLIGVLILLHAERDLA [SRP68] | 1.28 ± 0.078 | 2.26 ± 0.17 | 2.48 ± 0.088 | 2.78 ± 0.098
SRKAHGLNAKQLYKARM [POP1] | 3.03 ± 0.094 | 3.4 ± 0.12 | 2.96 ± 0.05 | 2.83 ± 0.034
DATNTSYKMIQLDAYGE [SWP82] | 3.29 ± 0.087 | 3.39 ± 0.077 | 3.25 ± 0.057 | 3.16 ± 0.05
GSKSASKQTPQPKAPRA [ISW2] | 3.08 ± 0.076 | 3.17 ± 0.12 | 2.76 ± 0.1 | 3.23 ± 0.08
ASSAAAGAAGAAAGGDA [RPP2B] | 2.87 ± 0.11 | 3.02 ± 0.084 | 3.21 ± 0.071 | 2.87 ± 0.095
TSTEKLYKLNDKIAVAV [PRE9] | 2.84 ± 0.072 | 2.93 ± 0.081 | 3.1 ± 0.081 | 2.95 ± 0.068
SVIPLKGRYAPETGDHV [RRP4] | 2.53 ± 0.059 | 2.52 ± 0.052 | 2.67 ± 0.073 | 2.69 ± 0.041

Sequence | protein stability index (doa10∆) | protein stability index (pdr5∆) | protein stability index (san1∆) | protein stability index (ubr1∆)
EFCDEPSVGVKTMKTFV [RPB5] | 3.15 ± 0.12 | 3.56 ± 0.27 | – | –
GSAITGPVGKECADLWP [RPL23A] | 2.44 ± 0.11 | 2.75 ± 0.085 | 2.83 ± 0.067 | 2.64 ± 0.064
SAGDDGKVRLWKATYSN [YGL100W/SEH1] | 2.74 ± 0.061 | 2.89 ± 0.089 | 2.74 ± 0.06 | 3 ± 0.058
DPAHSLNYTVINFKSRE [AAR2] | 3.07 ± 0.054 | 3.1 ± 0.059 | 3.14 ± 0.046 | 3.22 ± 0.037
VLIKMVKMLRDNPGYKA [SIR3] | 3.34 ± 0.077 | 3.47 ± 0.068 | 3.47 ± 0.039 | 3.33 ± 0.036
RAYRIIRAHQTELTHHL [QCR7] | 3.03 ± 0.11 | 3.34 ± 0.081 | 3.01 ± 0.07 | 2.96 ± 0.064
MSNVVQARDNSQVFGVA [RPS14A] | 1.89 ± 0.06 | 2.11 ± 0.056 | 1.94 ± 0.083 | 2.05 ± 0.041
VVARRSNSANVSSPESE [ITC1] | 3.19 ± 0.05 | 3.35 ± 0.053 | 3.25 ± 0.036 | 3.18 ± 0.035
SQPSKKSFANHTEDEQI [SIR4] | 2.81 ± 0.059 | 2.84 ± 0.052 | 3.08 ± 0.059 | 2.83 ± 0.052
LKILKQVMEEKLDENNA [PUP2] | – | – | 2.8 ± 0.23 | –
RVEKIPEIPLVVSTDLE [RPL4A] | – | 2.93 ± 0.3 | – | 2.77 ± 0.22
EDEMMHEEDQKTNIIEK [RPN12] | 3.26 ± 0.1 | 3.09 ± 0.12 | 2.58 ± 0.15 | 2.85 ± 0.13
PIMFQDFDDSTAQEINF [IRR1] | 2.81 ± 0.057 | 2.92 ± 0.059 | 2.52 ± 0.053 | 2.88 ± 0.043
SVDKKVDSGEERNEQER [SWI3] | 3.53 ± 0.092 | 3.35 ± 0.14 | 3.25 ± 0.11 | 3.54 ± 0.077
YSLQPSVDITGGPWFTD [RPC34] | 1.89 ± 0.079 | 2.54 ± 0.12 | 2.86 ± 0.089 | 2.49 ± 0.064
AQLTLKRCKHFELGGEK [RPL42A] | 1.93 ± 0.12 | 2.46 ± 0.11 | 2.89 ± 0.069 | 2.56 ± 0.076
ARGLTATGKKSRGINKG [RPL15A] | 3.57 ± 0.19 | 3.37 ± 0.15 | 3.3 ± 0.071 | 3.16 ± 0.068
GSARTRWEMEAFGEFSL [FAS2] | 1.78 ± 0.072 | 2.92 ± 0.13 | 2.93 ± 0.098 | 2.24 ± 0.098
QLVIQQGTGKKTASLGN [ISW2] | 3.2 ± 0.24 | 2.83 ± 0.21 | 3.23 ± 0.21 | 3.41 ± 0.24
LGNIASSFYINHASMDV [BRR2] | 2.84 ± 0.12 | 2.67 ± 0.12 | 2.88 ± 0.1 | 3.27 ± 0.15
TTSLNPIQSKVFHAAFE [BRR2] | 2.65 ± 0.062 | 2.56 ± 0.071 | 2.08 ± 0.11 | 2.85 ± 0.052
SYFLKLLGNCYSLRLIN [SRB8] | 2.81 ± 0.065 | 2.75 ± 0.06 | 2.48 ± 0.061 | 2.96 ± 0.069
LSSAGAKSTVETFISSM [RIP1] | 3.08 ± 0.17 | 2.8 ± 0.13 | 2.86 ± 0.072 | 2.69 ± 0.11
KEKIEKLSKSATESIKN [SMC1] | 3.28 ± 0.12 | 2.99 ± 0.21 | 2.97 ± 0.079 | 3.07 ± 0.072
HKKIKVAQPDSLRETNT [SIR2] | 3.33 ± 0.13 | 3.25 ± 0.11 | 2.6 ± 0.092 | 3.2 ± 0.053
CRRMILTHVDLIEKFLR [RPB10] | 2.85 ± 0.21 | 1.46 ± 0.11 | – | 2.04 ± 0.099
